Experimental data reported in publication PMC11970842.

Target: recombinant trypanothione reductase from Leishmania braziliensis (Leishmania braziliensis) (UniProt A4H480)

crotapotin from Crotalus durissus terrificus venom (natural protein)
IC50 of inhibition of LbTR enzymatic activity (reduction of T[S]2, DTNB-coupled, absorbance at 412 nm; 0.04 µM enzyme, crotapotin 0, 100, 150 and 200 µM, 28 °C, pH 7.5): 224 μM
